Experimental data reported in the supplement of paper PMC9233669.
Fewer inactive variants are shown than the library holds.

Tests used:
[1] = tested on: biotinyl-Val-oxazolone; experiment: self-aminoacylation, catalytic enhancement (BVO) (fold over background); higher = more active; k-Seq, kA / k0A0; sequences stand for … in GGGAAUGGAUCCACAUCUACGAAUUC…UUCACUGCAGACUUGACGAAGCUG
Outline: (§1)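 Each biotinyl-aminoacyl-oxazolone, at 2–1250 μM, was incubated with mutagenized RNA pools (0.43 μM) carrying a 21-nt variable region. The 50 μL reactions contained HEPES/NaCl/KCl/MgCl2/CaCl2 buffer with 5% acetonitrile at pH 6.9–7.0 and ran for 90 minutes at room temperature. After streptavidin capture, RNA was measured by qPCR in triplicate and by Illumina sequencing, and catalytic enhancement was calculated as median kA over the uncatalyzed rate from a pseudo-first-order fit of per-sequence fraction reacted.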

[2] = tested on: biotinyl-Phe-oxazolone; experiment: self-aminoacylation, catalytic enhancement (BFO) (fold over background); higher = more active; k-Seq, kA / k0A0; sequences stand for … in GGGAAUGGAUCCACAUCUACGAAUUC…UUCACUGCAGACUUGACGAAGCUG
Outline: as §1

[3] = tested on: biotinyl-Met-oxazolone; experiment: self-aminoacylation, catalytic enhancement (BMO) (fold over background); higher = more active; k-Seq, kA / k0A0; sequences stand for … in GGGAAUGGAUCCACAUCUACGAAUUC…UUCACUGCAGACUUGACGAAGCUG
Outline: as §1

[4] = tested on: biotinyl-Ile-oxazolone; experiment: self-aminoacylation, catalytic enhancement (BIO) (fold over background); higher = more active; k-Seq, kA / k0A0; sequences stand for … in GGGAAUGGAUCCACAUCUACGAAUUC…UUCACUGCAGACUUGACGAAGCUG
Outline: as §1

[5] = tested on: biotinyl-Leu-oxazolone; experiment: self-aminoacylation, catalytic enhancement (BLO) (fold over background); higher = more active; k-Seq, kA / k0A0; sequences stand for … in GGGAAUGGAUCCACAUCUACGAAUUC…UUCACUGCAGACUUGACGAAGCUG
Outline: as §1

[6] = tested on: biotinyl-Trp-oxazolone; experiment: self-aminoacylation, catalytic enhancement (BWO) (fold over background); higher = more active; k-Seq, kA / k0A0; sequences stand for … in GGGAAUGGAUCCACAUCUACGAAUUC…UUCACUGCAGACUUGACGAAGCUG
Outline: as §1

**Q.** With “AUUCACCUAGGUCAUCGAGAG [Fam2.2 aminoacylation ribozyme variant]” as the sequence, how does the self-aminoacylation [1] read?
**A.** 0.848

**Q.** What about the self-aminoacylation [2] of the same sequence?
**A.** 1.13

**Q.** What about the self-aminoacylation [3] of the same sequence?
**A.** 1.07

**Q.** And the self-aminoacylation [4]?
**A.** 0.915

**Q.** And the self-aminoacylation [5]?
**A.** 1.47

**Q.** What about the self-aminoacylation [6] of the same sequence?
**A.** 0.394

**Q.** How did the self-aminoacylation [1] turn out when “AUUCACCUAGGUCAUCGAGUA [Fam2.2 aminoacylation ribozyme variant]” was run?
**A.** 5.92

**Q.** What about the self-aminoacylation [2] of the same sequence?
**A.** 31.7

**Q.** What about the self-aminoacylation [3] of the same sequence?
**A.** 9.81

**Q.** And the self-aminoacylation [4]?
**A.** 7.22

**Q.** And the self-aminoacylation [5]?
**A.** 13.1

**Q.** And the self-aminoacylation [6]?
**A.** 3.9

**Q.** For “AUUCACCUAGGUCAUCGCAUG [Fam2.2 aminoacylation ribozyme variant]”, which self-aminoacylation [1] is on record?
**A.** 1.28

**Q.** What about the self-aminoacylation [2] of the same sequence?
**A.** 0.374

**Q.** And the self-aminoacylation [3]?
**A.** 1.04

**Q.** And the self-aminoacylation [4]?
**A.** 1.05

**Q.** What about the self-aminoacylation [5] of the same sequence?
**A.** 1.22

**Q.** And the self-aminoacylation [6]?
**A.** 1.06

**Q.** For “AUUCACCUAGGUCAUCGGAUU [Fam2.2 aminoacylation ribozyme variant]”, which self-aminoacylation [1] is on record?
**A.** 0.864

**Q.** And the self-aminoacylation [2]?
**A.** 0.438

**Q.** What about the self-aminoacylation [3] of the same sequence?
**A.** 0.853

**Q.** And the self-aminoacylation [4]?
**A.** 0.872

**Q.** And the self-aminoacylation [5]?
**A.** 0.837

**Q.** And the self-aminoacylation [6]?
**A.** 1.19

**Q.** For “AUUCACCUAGGUCAUCGGGGU [Fam2.2 aminoacylation ribozyme variant]”, which self-aminoacylation [1] is on record?
**A.** 5.09

**Q.** What about the self-aminoacylation [2] of the same sequence?
**A.** 40.5

**Q.** And the self-aminoacylation [3]?
**A.** 7.67

**Q.** What about the self-aminoacylation [4] of the same sequence?
**A.** 5.09

**Q.** And the self-aminoacylation [5]?
**A.** 12.2

**Q.** What about the self-aminoacylation [6] of the same sequence?
**A.** 7.01

**Q.** How did the self-aminoacylation [1] turn out when “AUUCACCUAGGUCAUCGGUUU [Fam2.2 aminoacylation ribozyme variant]” was run?
**A.** 1.41

**Q.** And the self-aminoacylation [2]?
**A.** 1.09

**Q.** And the self-aminoacylation [3]?
**A.** 1.19

**Q.** What about the self-aminoacylation [4] of the same sequence?
**A.** 1.19

**Q.** What about the self-aminoacylation [5] of the same sequence?
**A.** 1.28

**Q.** What about the self-aminoacylation [6] of the same sequence?
**A.** 0.984

**Q.** “AUUCACCUAGGUCAUCGUCUG [Fam2.2 aminoacylation ribozyme variant]” was tested. Which self-aminoacylation [1] did it give?
**A.** 0.718

**Q.** What about the self-aminoacylation [2] of the same sequence?
**A.** 0.312

**Q.** What about the self-aminoacylation [3] of the same sequence?
**A.** 0.67

**Q.** And the self-aminoacylation [4]?
**A.** 0.663

**Q.** And the self-aminoacylation [5]?
**A.** 0.717

**Q.** What about the self-aminoacylation [6] of the same sequence?
**A.** 0.376

**Q.** Which self-aminoacylation [1] does the source give for “AUUCACCUAGGUCAUCGUGUC [Fam2.2 aminoacylation ribozyme variant]” here?
**A.** 0.474

**Q.** What about the self-aminoacylation [2] of the same sequence?
**A.** 0.307

**Q.** What about the self-aminoacylation [3] of the same sequence?
**A.** 0.403

**Q.** What about the self-aminoacylation [4] of the same sequence?
**A.** 0.461

**Q.** And the self-aminoacylation [5]?
**A.** 0.498

**Q.** What about the self-aminoacylation [6] of the same sequence?
**A.** 0.514

**Q.** For “AUUCACCUAGGUCAUCGUUUG [Fam2.2 aminoacylation ribozyme variant]”, which self-aminoacylation [1] is on record?
**A.** 0.771

**Q.** And the self-aminoacylation [2]?
**A.** 0.512

**Q.** And the self-aminoacylation [3]?
**A.** 0.542

**Q.** What about the self-aminoacylation [4] of the same sequence?
**A.** 0.592

**Q.** What about the self-aminoacylation [5] of the same sequence?
**A.** 0.556

**Q.** And the self-aminoacylation [6]?
**A.** 0.31

**Q.** Which self-aminoacylation [1] does the source give for “AUUCACCUAGGUCAUCUGGGG [Fam2.2 aminoacylation ribozyme variant]” here?
**A.** 1.5

**Q.** And the self-aminoacylation [2]?
**A.** 2.49

**Q.** And the self-aminoacylation [3]?
**A.** 1.83

**Q.** And the self-aminoacylation [4]?
**A.** 1.63

**Q.** What about the self-aminoacylation [5] of the same sequence?
**A.** 1.9

**Q.** And the self-aminoacylation [6]?
**A.** 1.54

**Q.** How did the self-aminoacylation [1] turn out when “AUUCACCUAGGUCAUCUGGUG [Fam2.2 aminoacylation ribozyme variant]” was run?
**A.** 1.9

**Q.** What about the self-aminoacylation [2] of the same sequence?
**A.** 16.5

**Q.** What about the self-aminoacylation [3] of the same sequence?
**A.** 2.71

**Q.** What about the self-aminoacylation [4] of the same sequence?
**A.** 1.93

**Q.** And the self-aminoacylation [5]?
**A.** 3.41

**Q.** What about the self-aminoacylation [6] of the same sequence?
**A.** 2.62

**Q.** “AUUCACCUAGGUCAUGGGCUG [Fam2.2 aminoacylation ribozyme variant]” was tested. Which self-aminoacylation [1] did it give?
**A.** 1.33

**Q.** And the self-aminoacylation [2]?
**A.** 0.402

**Q.** What about the self-aminoacylation [3] of the same sequence?
**A.** 1.54

**Q.** What about the self-aminoacylation [4] of the same sequence?
**A.** 1.63

**Q.** What about the self-aminoacylation [5] of the same sequence?
**A.** 1.66

**Q.** What about the self-aminoacylation [6] of the same sequence?
**A.** 1.17
